Assay results taken from patent US20200276237A1 (MIE UNIVERSITY, published 2020).

Tests used:
[1] = molecular target: T1, HLA-A2/MAGE-A8 risk peptide on T2 cells (human); experiment: FACS on T2 cells pulsed with risk peptide
T1 construct: whole, on cells

[2] = molecular target: T2, HLA-A2/MAGE-A10 risk peptide on T2 cells (human); experiment: FACS on T2 cells pulsed with risk peptide
T2 construct: whole, on cells

[3] = molecular target: T3, HLA-A2/MAGE-A11 risk peptide on T2 cells (human); experiment: FACS on T2 cells pulsed with risk peptide
T3 construct: whole, on cells

[4] = molecular target: T4, HLA-A2/MAGE-B2 risk peptide on T2 cells (human); experiment: FACS on T2 cells pulsed with risk peptide
T4 construct: whole, on cells

[5] = molecular target: T5, HLA-A2/MAGE-B10 risk peptide on T2 cells (human); experiment: FACS on T2 cells pulsed with risk peptide
T5 construct: whole, on cells

[6] = molecular target: T6, HLA-A2/MAGE-C2 risk peptide on T2 cells (human); experiment: FACS on T2 cells pulsed with risk peptide
T6 construct: whole, on cells

[7] = molecular target: T7, HLA-A2/RBBP5 risk peptide on T2 cells (human); experiment: FACS on T2 cells pulsed with risk peptide
T7 construct: whole, on cells; Theoretical MHC IC50 is high (5880.0 nM)

[8] = molecular target: T8, HLA-A2-MAGE-A4 p230 monomer (human); experiment: SPR, BiacoreX100, HLA-A2-MAGE-A4 p230 on sensor chip CAP, purified scFv 12.5-200 nM, single cycle
T8 construct: Biotinylated soluble monomer, captured on neutravidin plates (ELISA) or on the Biacore sensor chip CAP; also called HLA-A2-MAGE-A4 monomer; MAGE-A4-derived peptide/HLA-A2 complex
Experimental: Determination of KD value by Biacore was determined by measuring the dynamic changes in detection sensitivity (resonance, reflecting the change in mass on the chip) over time. The dissociation rate constant (Kd) and the binding rate constant (Ka) were determined by dynamic change curve, the binding constant was determined from the ratio of the two constants.

binding result [1]: no binding
binding result [2]: no binding
binding result [3]: no binding
binding result [4]: no binding
binding result [5]: no binding
binding result [6]: no binding
binding result [7]: no binding
Kd [8]: 22 nM
B1: MAGE #17 scFv-FLAG/His (scFv)
scFv: QVQLVQSGAEVKKPGSSVKVSCKASGGTFSSYAISWVRQAPGQGLEWMGGIIPIFGTANYAQKFQGRVTITADKSTSTAYMELSSLRSEDTAVYYCARSPRRAYHDAFDIWGQGTMVTVSSGGGGSGGGGSGGGGSSYELTQPPSMSVAPGKTASITCGGDHIGSKSVHWYQQKPGQAPVLVVYDDSDRPSGIPERFSGSNSGNTATLTISGTQAMDEADYYCLAWDSSTAIFGGGTKLTVL
notes: Purified scFv-FLAG/His form, used for Biacore and for FACS on T2 cells (detection with anti-FLAG); also called clone #17; anti-MAGE #17; not shown: FLAG tag and His tag from the His/FLAG expression vector
